Assay results as given in article PMC6684648 (2019).

Target: human IGF2R extra-cellular domains 1-15 fused at the C-terminal to rat CD4 (domains 3 + 4), biotin acceptor … (human, UniProt P11717 41-2304, biotin on the BirA acceptor tag)
Assay: SPR

B1: bovine β-glucuronidase (290 KD) (enzyme)
chain: LQGGMLYPRESRSRERKELDGLWSFRADFSDNRRQGFEQQWYRAPLRESGPTLDMPVPSSFNDVGQDGQLRSFVGWVWYEREITLPQRWTEDLGTRVVLRIGSAHYYAIVWVNGVHVLEHEGGHLPFEADISKLVQSGPLSSCRITIAINNTLSPHTLPPGTILYKTDPSMYPKGYFVQNTKFDFFNYAGLHRSVLLYTTPTTYIDDITVTTDMDQDIGLVNYQIIVQGSDHFQVDVSLLDEEGKVMAKGAGAEGQLQVPSAHLWWPYLMHEHPAYLYSLEVKLTAQTAVGPVSDFYTLPVGIRTVAVTKSQFLINGKPFYFRGVNKHEDADIRGKGFDWPLLVKDFNLLRWLGANAFRTSHYPYSEEVLQLCDRYGIVVIDESPGVGIVLVESFSNVSLQHHLEVMEEMIRRDKNHPAVVMWSLANEPASFLKPAGYYFKTLIAHTKALDPSRPVTFVTNTNYEADLGAPYVDIICVNSYYSWYHDYGHMEVIQLQLATQFENWYKAYQKPMIQSEYGADAIEGFHEDPPLMFSEEYQKGLLQQYHVVLDQKRKEYVVGELIWNFADFMTNQSPVRMIGNRKGIFTRQRQPKSAAFLLRERYWKLANETRYQRSAVTSQCVGSGLFTV
modifications: mannose 6-phosphate (M6P-beta-glucuronidase)
Kd: 52.3 nM

B2: human glu-plasminogen (88 KD) (natural protein)
chain: EPLDDYVNTQGASLFSVTKKQLGAGSIEECAAKCEEDEEFTCRAFQYHSKEQQCVIMAENRKSSIIIRMRDVVLFEKKVYLSECKTGNGKNYRGTMSKTKNGITCQKWSSTSPHRPRFSPATHPSEGLEENYCRNPDNDPQGPWCYTTDPEKRYDYCDILECEEECMHCSGENYDGKISKTMSGLECQAWDSQSPHAHGYIPSKFPNKNLKKNYCRNPDRELRPWCFTTDPNKRWELCDIPRCTTPPPSSGPTYQCLKGTGENYRGNVAVTVSGHTCQHWSAQTPHTHNRTPENFPCKNLDENYCRNPDGKRAPWCHTTNSQVRWEYCKIPSCDSSPVSTEQLAPTAPPELTPVVQDCYHGDGQSYRGTSSTTTTGKKCQSWSSMTPHRHQKTPENYPNAGLTMNYCRNPDADKGPWCFTTDPSVRWEYCNLKKCSGTEASVVAPPPVVLLPDVETPSEEDCMFGNGKGYRGKRATTVTGTPCQDWAAQEPHRHSIFTPETNPRAGLEKNYCRNPDGDVGGPWCYTTNPRKLYDYCDVPQCAAPSFDCGKPQVEPKKCPGRVVGGCVAHPHSWPWQVSLRTRFGMHFCGGTLISPEWVLTAAHCLEKSPRPSSYKVILGAHQEVNLEPHVQEIEVSRLFLEPTRKDIALLKLSSPAVITDKVIPACLPSPNYVVADRTECFITGWGETQGTFGAGLLKEAQLPVIENKVCNRYEFLNGRVQSTELCAGHLAGGTDSCQGDSGGPLVCFEKDKYILQGVTSWGLGCARPNKPGVYVRVSRFVTWIEGVMRNN
Kd: 43.5 nM
